In this test the target is desmocollin 2 (DSC2) (human) (UniProt Q02487). Nature of the test: flow cytometry on NCI-H358 cells, control human IgG. Background: A flow cytometer gives signals particle by particle.

B1: anti-DSC2 human antibody 332 (antibody, V domains shown)
VH: QVQLQQWGAGLLKPSETLSLTCAVYGGSFSGNYWSWIRQPPGKGLEWIGEINHSGNTKYNPSLKSRVAISADTSKNQFSLKLSSVTAADTAVYYCARVPFDWFHPPGEPPFYYYYGMDVWGQGTTVTVSS
VL: HVILTQPPSVSGAPGQRVTISCTGSSSNIGAGYDVHWYQQLPGTAPKLLIYGNSNRPSGVPDRFSGSKSGTSASLAITGLQAEDEADYYCQSYDSSLSGWVFGGGTKLTVPG
In the case of B1, the MFI (ratio of intensity to control IgG) was 9.48.

(Values after patent US20080260748A1.)
